Target: CD19 antigen on NALM-6 tumor cells (pre-B cell leukemia) (human) (UniProt P15391)
Assay: cell-based or functional assay

Chain of CD19 antigen on NALM-6 tumor cells (pre-B cell leukemia) (human) (P15391 20-556): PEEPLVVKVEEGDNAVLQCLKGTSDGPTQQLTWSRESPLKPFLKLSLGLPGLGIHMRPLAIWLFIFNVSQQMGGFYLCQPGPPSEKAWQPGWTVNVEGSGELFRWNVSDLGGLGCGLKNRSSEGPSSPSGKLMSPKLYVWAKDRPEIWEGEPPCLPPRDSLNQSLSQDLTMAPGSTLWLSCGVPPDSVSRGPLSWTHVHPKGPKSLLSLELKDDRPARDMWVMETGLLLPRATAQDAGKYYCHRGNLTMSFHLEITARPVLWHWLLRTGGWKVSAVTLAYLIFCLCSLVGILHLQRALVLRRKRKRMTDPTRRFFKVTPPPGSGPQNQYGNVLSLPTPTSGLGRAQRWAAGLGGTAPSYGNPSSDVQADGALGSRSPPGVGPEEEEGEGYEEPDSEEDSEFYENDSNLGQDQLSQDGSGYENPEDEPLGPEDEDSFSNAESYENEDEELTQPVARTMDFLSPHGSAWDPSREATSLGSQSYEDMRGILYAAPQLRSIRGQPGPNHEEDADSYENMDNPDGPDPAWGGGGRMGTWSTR

Anti-hCD19-CD3 bispecific T cell engager (BiTE) (InvivoGen, #bimab-hcd19cd3) (bispecific antibody)
BiTE-mediated NALM-6 tumor killing (luciferase-based readout, Bcl-xL-transfected CD8+ T cells as effectors): > 95%

— patent US20230302054A1
